Measurements taken from patent publication EP0651055A2 (priority 1993, dated 1995).

Columns and labels:
CC(=O)SCC[N+](C)(C)C = assay: purified protein, by the assay type; settings: sodium-phosphate buffer pH 8, 27°C
CC(=O)SCCC(C)(C)C = assay: purified protein, by the assay type; settings: sodium-phosphate buffer pH 8, 27°C

recombinant HuAChE mutant Glu202Gln (Homo sapiens; E233Q)
Km (CC(=O)SCC[N+](C)(C)C; other: Glu202Gln): 350 ± 40 µM | Km (CC(=O)SCCC(C)(C)C; other: Glu202Gln): 230 ± 30 µM

recombinant HuAChE mutant Phe338Ala (Homo sapiens; F369A)
Km (CC(=O)SCC[N+](C)(C)C; other: Phe338Ala): 240 ± 20 µM | Km (CC(=O)SCCC(C)(C)C; other: Phe338Ala): 300 ± 70 µM

recombinant HuAChE mutant Tyr337Ala (Homo sapiens; Y368A)
Km (CC(=O)SCC[N+](C)(C)C; other: Tyr337Ala): 100 ± 10 µM | Km (CC(=O)SCCC(C)(C)C; other: Tyr337Ala): 200 ± 30 µM

recombinant HuAChE mutant Glu450Ala (Homo sapiens; E481A)
Km (CC(=O)SCC[N+](C)(C)C; other: Glu450Ala): 350 ± 40 µM | Km (CC(=O)SCCC(C)(C)C; other: Glu450Ala): 200 ± 40 µM
